{"source": "paper PMC2192333", "about": "(The Journal of Experimental Medicine, 1996)", "molecules": {"B1": {"name": "D137A (protein, UniProt P20701 26-1170, looked up, variant D137A)", "Integrin alpha-L": "YNLDVRGARSFSPPRAGRHFGYRVLQVGNGVIVGAPGEGNSTGSLYQCQSGTGHCLPVTLRGSNYTSKYLGMTLATDPTDGSILACDPGLSRTCDQNTYLSGLCYLFRQNLQGPMLQGRPGFQECIKGNVDLVFLFAGSMSLQPDEFQKILDFMKDVMKKLSNTSYQFAAVQFSTSYKTEFDFSDYVKRKDPDALLKHVKHMLLLTNTFGAINYVATEVFREELGARPDATKVLIIITDGEATDSGNIDAAKDIIRYIIGIGKHFQTKESQETLHKFASKPASEFVKILDTFEKLKDLFTELQKKIYVIEGTSKQDLTSFNMELSSSGISADLSRGHAVVGAVGAKDWAGGFLDLKADLQDDTFIGNEPLTPEVRAGYLGYTVTWLPSRQKTSLLASGAPRYQHMGRVLLFQEPQGGGHWSQVQTIHGTQIGSYFGGELCGVDVDQDGETELLLIGAPLFYGEQRGGRVFIYQRRQLGFEEVSELQGDPGYPLGRFGEAITALTDINGDGLVDVAVGAPLEEQGAVYIFNGRHGGLSPQPSQRIEGTQVLSGIQWFGRSIHGVKDLEGDGLADVAVGAESQMIVLSSRPVVDMVTLMSFSPAEIPVHEVECSYSTSNKMKEGVNITICFQIKSLIPQFQGRLVANLTYTLQLDGHRTRRRGLFPGGRHELRRNIAVTTSMSCTDFSFHFPVCVQDLISPINVSLNFSLWEEEGTPRDQRAQGKDIPPILRPSLHSETWEIPFEKNCGEDKKCEANLRVSFSPARSRALRLTAFASLSVELSLSNLEEDAYWVQLDLHFPPGLSFRKVEMLKPHSQIPVSCEELPEESRLLSRALSCNVSSPIFKAGHSVALQMMFNTLVNSSWGDSVELHANVTCNNEDSDLLEDNSATTIIPILYPINILIQDQEDSTLYVSFTPKGPKIHQVKHMYQVRIQPSIHDHNIPTLEAVVGVPQPPSEGPITHQWSVQMEPPVPCHYEDLERLPDAAEPCLPGALFRCPVVFRQEILVQVIGTLELVGEIEASSMFSLCSSLSISFNSSKHFHLYGSNASLAQVVMKVDVVYEKQMLYLYVLSGIGGLLLLLLIFIVLYKVGFFKRNLKEKMEAGRGVPNGIPAEDSEQLASGQEAGDPGCLKPLHEKDSESGGGKD"}, "B2": {"name": "H/M53: human Ile-126 and Asn-129 replaced with murine residues Met and Lys, respectively (protein, UniProt P20701 26-1170, looked up, variant I126M N129K)", "Integrin alpha-L": "B1 Integrin alpha-L with I126M, N129K, A137D"}}, "key": {"ICAM-1 [1]": {"test_system": "ICAM-1", "conditions": "cited from earlier work"}, "ICAM-1 [2]": {"test_system": "ICAM-1", "assay": "Adhesion of 293 cells transfected with CD11a I domain mutants/CD18 to ICAM-1Fc", "assay_type": "cell-based, human", "conditions": "wide range of concentrations of ICAM-1, data not shown"}}, "note": "Residue numbers refer to the chain shown, from its start. Names may count otherwise."}
{"molecule": "B1", "values": [{"measurement": "binding to ICAM-1", "setting": "ICAM-1 [1]", "result": "critical to ICAM-1 binding"}]}
{"molecule": "B2", "values": [{"measurement": "adhesion to ICAM-1, wide range of ICAM-1 concentrations", "setting": "ICAM-1 [2]", "result": "identical binding as that of wild-type CD11a"}]}
